The target in this assay is T1, hIL2Rg ECD antigen (human, UniProt P31785 23-262).
T1 construct: Antigen of biopanning and PE-ELISA; also called extracellular domain of human IL2Rg; CD132 ECD
T1 sequence: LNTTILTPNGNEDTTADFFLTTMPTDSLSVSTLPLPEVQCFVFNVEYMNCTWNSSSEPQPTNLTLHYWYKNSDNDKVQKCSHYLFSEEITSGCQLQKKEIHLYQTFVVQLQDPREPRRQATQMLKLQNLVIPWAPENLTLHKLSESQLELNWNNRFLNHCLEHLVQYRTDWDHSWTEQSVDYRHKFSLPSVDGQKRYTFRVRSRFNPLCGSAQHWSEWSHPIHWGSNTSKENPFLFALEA
Nature of the assay: periplasmic extract ELISA (PE-ELISA) of phage clones after biopanning.

This note sets out measurements from patent US20230272089A1 (SYNTHEKINE, published 2023).

B1: hIL2Rg_VHH-15 (VHH)
VHH: QVQLQESGGGLVQPGGSLRLSCAASGFTFSSAHMSWVRQAPGKGREWIASIYSGGGTFYADSVKGRFTISRDNAKNTLYLQLNSLKAEDTAMYYCATNRLHYYSDDDSLRGQGTQVTVSS
notes: Periplasmic extract of a phage clone, as in the PE-ELISA; not shown: HA/His tag of the pMECS phagemid
For the molecule B1, the binding result is reported as “binds”.
